Changes are numbered by the printed parent chain.
How the values were obtained:
Experiment in all cases: cell-based or functional assay
[1] = molecular target: T1, human GIP receptor (human) (UniProt P48546)
T1 sequence (looked up): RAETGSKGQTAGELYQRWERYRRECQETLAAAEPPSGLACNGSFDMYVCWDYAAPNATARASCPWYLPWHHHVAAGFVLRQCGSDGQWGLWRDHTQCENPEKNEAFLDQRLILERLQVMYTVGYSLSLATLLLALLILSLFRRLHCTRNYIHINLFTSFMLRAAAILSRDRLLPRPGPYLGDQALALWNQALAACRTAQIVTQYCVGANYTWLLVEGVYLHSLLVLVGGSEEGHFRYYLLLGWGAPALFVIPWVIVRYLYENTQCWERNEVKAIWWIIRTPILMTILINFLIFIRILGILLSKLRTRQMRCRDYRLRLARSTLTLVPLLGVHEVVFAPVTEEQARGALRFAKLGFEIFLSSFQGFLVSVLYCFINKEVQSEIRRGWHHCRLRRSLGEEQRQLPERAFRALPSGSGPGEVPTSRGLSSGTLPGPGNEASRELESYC

hGLP-1R = hGLP-1R (Homo sapiens, UniProt P43220)
[2] = molecular target: human glucagon receptor (human) (UniProt P47871)
Chain of human glucagon receptor (human) (P47871 26-477): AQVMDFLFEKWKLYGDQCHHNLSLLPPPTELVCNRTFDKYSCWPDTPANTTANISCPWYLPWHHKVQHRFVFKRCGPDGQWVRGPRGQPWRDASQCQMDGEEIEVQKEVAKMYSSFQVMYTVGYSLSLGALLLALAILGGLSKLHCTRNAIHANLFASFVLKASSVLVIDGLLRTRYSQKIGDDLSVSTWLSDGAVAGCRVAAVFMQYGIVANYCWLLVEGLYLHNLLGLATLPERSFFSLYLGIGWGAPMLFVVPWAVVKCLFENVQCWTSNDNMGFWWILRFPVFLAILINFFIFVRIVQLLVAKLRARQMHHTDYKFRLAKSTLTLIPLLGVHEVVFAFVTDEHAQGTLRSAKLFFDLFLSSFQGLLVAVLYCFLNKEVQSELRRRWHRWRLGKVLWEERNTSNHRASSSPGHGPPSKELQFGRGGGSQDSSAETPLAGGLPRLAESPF

Chain of hGLP-1R (P43220 24-463): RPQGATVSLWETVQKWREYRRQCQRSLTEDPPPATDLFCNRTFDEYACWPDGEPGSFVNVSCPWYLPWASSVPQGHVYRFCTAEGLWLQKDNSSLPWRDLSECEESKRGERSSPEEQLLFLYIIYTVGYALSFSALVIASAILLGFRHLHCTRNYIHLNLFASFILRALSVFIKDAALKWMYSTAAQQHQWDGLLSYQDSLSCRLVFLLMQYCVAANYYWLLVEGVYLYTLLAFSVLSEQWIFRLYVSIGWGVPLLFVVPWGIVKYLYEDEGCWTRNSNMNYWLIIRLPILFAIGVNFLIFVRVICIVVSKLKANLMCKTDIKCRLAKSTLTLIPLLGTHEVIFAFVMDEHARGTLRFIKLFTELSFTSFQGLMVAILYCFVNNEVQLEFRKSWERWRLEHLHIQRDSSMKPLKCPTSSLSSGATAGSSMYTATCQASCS

B1: Example 697 (peptide)
chain: YXQGTXTSDXXIXLDXKAQXXFIEXLIEGGPSSGEPPPEGTGE
modifications: synthetic construct; SITE 2: note = 2-Aminoisobutyric Acid; SITE 6: note = alpha-methyl-2-fluoro-L-phenylalanine; SITE 10: note = 3-(4-Pyridyl)-L-alanine; SITE 11: note = alpha-methyl-L-serine; SITE 13: note = alpha-methyl-leucine; SITE 16: note = L-ornithine; SITE 17: note = Lysine is chemically mo
B1 showed a Relative cAMP EC50 [1] of 0.0109 nM, a cAMP Rel EC50 (1% HSA) [1] of 0.607 nM and a Relative cAMP EC50 (hGLP-1R) of 0.235 nM. It also gave a cAMP Rel EC50 (1% HSA) (hGLP-1R) of 18.2 nM, a Relative cAMP EC50 [2] of 1.71 nM and a cAMP Rel EC50 (1% HSA) [2] of 130 nM.

B2: Example 746 (peptide)
chain: B1 chain with Q19A, X21E, E39S, T41G
modifications: synthetic construct; SITE 2: note = 2-Aminoisobutyric Acid; SITE 6: note = alpha-methyl-2-fluoro-L-phenylalanine; SITE 10: note = 3-(4-Pyridyl)-L-alanine; SITE 11: note = alpha-methyl-L-serine; SITE 13: note = alpha-methyl-leucine; SITE 16: note = L-ornithine; SITE 17: note = Lysine is chemically mo
Binder B2 has a Relative cAMP EC50 [1] of 0.0119 nM, a cAMP Rel EC50 (1% HSA) [1] of 1.44 nM and a Relative cAMP EC50 (hGLP-1R) of 0.261 nM. The cAMP Rel EC50 (1% HSA) (hGLP-1R) was 38.6 nM, the Relative cAMP EC50 [2] was 1.62 nM and the cAMP Rel EC50 (1% HSA) [2] was 255 nM.

B3: Example 747 (peptide)
chain: B1 chain with Q19A, X21E, E35A, E39S, T41G
modifications: synthetic construct; SITE 2: note = 2-Aminoisobutyric Acid; SITE 6: note = alpha-methyl-2-fluoro-L-phenylalanine; SITE 10: note = 3-(4-Pyridyl)-L-alanine; SITE 11: note = alpha-methyl-L-serine; SITE 13: note = alpha-methyl-leucine; SITE 16: note = L-ornithine; SITE 17: note = Lysine is chemically mo
Binder B3 has a Relative cAMP EC50 [1] of 0.00955 nM, a cAMP Rel EC50, nM (1% HSA) [1] of 0.651 nM and a Relative cAMP EC50 (hGLP-1R) of 0.229 nM. For the same binder, the cAMP Rel EC50, nM (1% HSA) (hGLP-1R) was 20.3 nM, the Relative cAMP EC50 [2] was 1.71 nM and the cAMP Rel EC50, nM (1% HSA) [2] was 169 nM.

B4: Example 748 (peptide)
chain: B1 chain with Q19A, X21E, E39S, T41G
modifications: synthetic construct; SITE 2: note = 2-Aminoisobutyric Acid; SITE 6: note = alpha-methyl-2-fluoro-L-phenylalanine; SITE 10: note = 3-(4-Pyridyl)-L-alanine; SITE 11: note = alpha-methyl-L-serine; SITE 13: note = alpha-methyl-leucine; SITE 16: note = L-ornithine; SITE 17: note = Lysine is chemically mo
Work on B4 yielded a Relative cAMP EC50 [1] of 0.0105 nM, a cAMP Rel EC50, nM (1% HSA) [1] of 0.865 nM and a Relative cAMP EC50 (hGLP-1R) of 0.258 nM. The cAMP Rel EC50, nM (1% HSA) (hGLP-1R) was 22.9 nM, the Relative cAMP EC50 [2] was 1.42 nM and the cAMP Rel EC50, nM (1% HSA) [2] was 156 nM.

B5: Example 724 (peptide)
chain: B1 chain with Q19A, X21E, E35A, E39S, E43X
modifications: synthetic construct; SITE 2: note = 2-Aminoisobutyric Acid; SITE 6: note = alpha-methyl-2-fluoro-L-phenylalanine; SITE 10: note = 3-(4-Pyridyl)-L-alanine; SITE 11: note = alpha-methyl-L-serine; SITE 13: note = alpha-methyl-leucine; SITE 16: note = L-ornithine; SITE 17: note = Lysine is chemically mo
B5 was tested, and the Relative cAMP EC50 [1] was 0.0102 nM, the cAMP Rel EC50 (1% HSA) [1] was 1.06 nM and the Relative cAMP EC50 (hGLP-1R) was 0.256 nM. It also gave a cAMP Rel EC50 (1% HSA) (hGLP-1R) of 26.4 nM, a Relative cAMP EC50 [2] of 1.74 nM and a cAMP Rel EC50 (1% HSA) [2] of 209 nM.

B6: Example 763 (peptide)
chain: B1 chain with X21E
modifications: synthetic construct; SITE 2: note = 2-Aminoisobutyric Acid; SITE 6: note = alpha-methyl-2-fluoro-L-phenylalanine; SITE 10: note = 3-(4-Pyridyl)-L-alanine; SITE 11: note = alpha-methyl-L-serine; SITE 13: note = alpha-methyl-leucine; SITE 16: note = L-ornithine; SITE 17: note = Lysine is chemically mo
Binder B6 has a Relative cAMP EC50 [1] of 0.00719 nM, a cAMP Rel EC50, nM (1% HSA) [1] of 1.16 nM and a Relative cAMP EC50 (hGLP-1R) of 0.302 nM. For the same binder, the cAMP Rel EC50, nM (1% HSA) (hGLP-1R) was 42.5 nM, the Relative cAMP EC50 [2] was 1.57 nM and the cAMP Rel EC50, nM (1% HSA) [2] was 222 nM.

B7: Example 725 (peptide)
chain: B1 chain with Q19A, X21E, E35A, E39S, G42E
modifications: synthetic construct; SITE 2: note = 2-Aminoisobutyric Acid; SITE 6: note = alpha-methyl-2-fluoro-L-phenylalanine; SITE 10: note = 3-(4-Pyridyl)-L-alanine; SITE 11: note = alpha-methyl-L-serine; SITE 13: note = alpha-methyl-leucine; SITE 16: note = L-ornithine; SITE 17: note = Lysine is chemically mo
B7 was tested, and the Relative cAMP EC50 [1] was 0.0126 nM, the cAMP Rel EC50 (1% HSA) [1] was 1.39 nM and the Relative cAMP EC50 (hGLP-1R) was 0.258 nM. It also gave a cAMP Rel EC50 (1% HSA) (hGLP-1R) of 29.1 nM, a Relative cAMP EC50 [2] of 1.49 nM and a cAMP Rel EC50 (1% HSA) [2] of 244 nM.

B8: Example 745 (peptide)
chain: B1 chain with Q19A, X21E, E35A, E39S, T41G
modifications: synthetic construct; SITE 2: note = 2-Aminoisobutyric Acid; SITE 6: note = alpha-methyl-2-fluoro-L-phenylalanine; SITE 10: note = 3-(4-Pyridyl)-L-alanine; SITE 11: note = alpha-methyl-L-serine; SITE 13: note = alpha-methyl-leucine; SITE 16: note = L-ornithine; SITE 17: note = Lysine is chemically mo
Binder B8 has a Relative cAMP EC50 [1] of 0.012 nM, a cAMP Rel EC50 (1% HSA) [1] of 1.36 nM and a Relative cAMP EC50 (hGLP-1R) of 0.212 nM. The cAMP Rel EC50 (1% HSA) (hGLP-1R) was 29 nM, the Relative cAMP EC50 [2] was 1.86 nM and the cAMP Rel EC50 (1% HSA) [2] was 266 nM.

B9: Example 72 (peptide)
chain: YXQGTFTSDFSXXLDKKAQXAFIEYLLEAGPSSGAPPPSEG
modifications: not fully specified; synthetic construct; SITE 2: note = 2-Aminoisobutyric Acid; SITE 12: note = L-ornithine; SITE 13: note = alpha-methyl-leucine; SITE 17: note = Lysine is chemically modified through conjugation of the epsilon-amino group of the Lysine side chain with (2-[2-(2-Amino-ethoxy)-ethoxy]-acetyl)2-(gamma-Glu)
B9 showed a Relative cAMP EC50 [1] of 0.202 nM, a cAMP Rel EC50, nM (in the presence of 1% HSA) [1] of 56.7 nM and a Relative cAMP EC50 (hGLP-1R) of 1.86 nM. The cAMP Rel EC50, nM (in the presence of 1% HSA) (hGLP-1R) was 683 nM, the Relative cAMP EC50 [2] was 5.48 nM and the cAMP Rel EC50, nM (in the presence of 1% HSA) [2] was 1910 nM.

B10: Example 702 (peptide)
chain: YXQGTXTSDXXIXLDXKAAXEFIEXLIEGGPSSGAPPPSGSE
modifications: synthetic construct; SITE 2: note = 2-Aminoisobutyric Acid; SITE 6: note = alpha-methyl-2-fluoro-L-phenylalanine; SITE 10: note = 3-(4-Pyridyl)-L-alanine; SITE 11: note = alpha-methyl-L-serine; SITE 13: note = alpha-methyl-leucine; SITE 16: note = L-ornithine; SITE 17: note = Lysine is chemically mo
B10 was tested, and the Relative cAMP EC50 [1] was 0.0116 nM, the cAMP Rel EC50 (1% HSA) [1] was 1.25 nM and the Relative cAMP EC50 (hGLP-1R) was 0.243 nM. For the same binder, the cAMP Rel EC50 (1% HSA) (hGLP-1R) was 28.4 nM, the Relative cAMP EC50 [2] was 1.5 nM and the cAMP Rel EC50 (1% HSA) [2] was 196 nM.

B11: Example 751 (peptide)
chain: B10 chain with A19Q, I27V
modifications: synthetic construct; SITE 2: note = 2-Aminoisobutyric Acid; SITE 6: note = alpha-methyl-2-fluoro-L-phenylalanine; SITE 10: note = 3-(4-Pyridyl)-L-alanine; SITE 11: note = alpha-methyl-L-serine; SITE 13: note = alpha-methyl-leucine; SITE 16: note = L-ornithine; SITE 17: note = Lysine is chemically mo
B11 showed a Relative cAMP EC50 [1] of 0.00759 nM, a cAMP Rel EC50, nM (1% HSA) [1] of 1.27 nM and a Relative cAMP EC50 (hGLP-1R) of 0.302 nM. The cAMP Rel EC50, nM (1% HSA) (hGLP-1R) was 32.3 nM, the Relative cAMP EC50 [2] was 1.9 nM and the cAMP Rel EC50, nM (1% HSA) [2] was 267 nM.

B12: Example 752 (peptide)
chain: B10 chain with A19Q, I27V, A35E
modifications: synthetic construct; SITE 2: note = 2-Aminoisobutyric Acid; SITE 6: note = alpha-methyl-2-fluoro-L-phenylalanine; SITE 10: note = 3-(4-Pyridyl)-L-alanine; SITE 11: note = alpha-methyl-L-serine; SITE 13: note = alpha-methyl-leucine; SITE 16: note = L-ornithine; SITE 17: note = Lysine is chemically mo
B12 showed a Relative cAMP EC50 [1] of 0.00689 nM, a cAMP Rel EC50, nM (1% HSA) [1] of 1.74 nM and a Relative cAMP EC50 (hGLP-1R) of 0.274 nM. It also gave a cAMP Rel EC50, nM (1% HSA) (hGLP-1R) of 44 nM, a Relative cAMP EC50 [2] of 1.9 nM and a cAMP Rel EC50, nM (1% HSA) [2] of 228 nM.

B13: Example 703 (peptide)
chain: B10 chain with S41E
modifications: synthetic construct; SITE 2: note = 2-Aminoisobutyric Acid; SITE 6: note = alpha-methyl-2-fluoro-L-phenylalanine; SITE 10: note = 3-(4-Pyridyl)-L-alanine; SITE 11: note = alpha-methyl-L-serine; SITE 13: note = alpha-methyl-leucine; SITE 16: note = L-ornithine; SITE 17: note = Lysine is chemically mo
B13 gave a Relative cAMP EC50 [1] of 0.0101 nM, a cAMP Rel EC50 (1% HSA) [1] of 0.961 nM and a Relative cAMP EC50 (hGLP-1R) of 0.233 nM. It also gave a cAMP Rel EC50 (1% HSA) (hGLP-1R) of 27.1 nM, a Relative cAMP EC50 [2] of 1.56 nM and a cAMP Rel EC50 (1% HSA) [2] of 201 nM.

B14: Example 720 (peptide)
chain: B10 chain with A35E
modifications: synthetic construct; SITE 2: note = 2-Aminoisobutyric Acid; SITE 6: note = alpha-methyl-2-fluoro-L-phenylalanine; SITE 10: note = 3-(4-Pyridyl)-L-alanine; SITE 11: note = alpha-methyl-L-serine; SITE 13: note = alpha-methyl-leucine; SITE 16: note = L-ornithine; SITE 17: note = Lysine is chemically mo
Binder B14 has a Relative cAMP EC50 [1] of 0.0103 nM, a cAMP Rel EC50 (1% HSA) [1] of 1.02 nM and a Relative cAMP EC50 (hGLP-1R) of 0.245 nM. It also gave a cAMP Rel EC50 (1% HSA) (hGLP-1R) of 28.3 nM, a Relative cAMP EC50 [2] of 1.78 nM and a cAMP Rel EC50 (1% HSA) [2] of 239 nM.

Reference: patent US20240270821A1, “GIP/GLP1/GCG TRI-RECEPTOR AGONISTS AND USES THEREOF” (priority 2023, published 2024)
